For orientation: stoichiometry N means the number of molecules, sites or subunits per partner or assembly.

The text below walks through data of paper PMC8420766, “Crystal structure of a MarR family protein from the psychrophilic bacterium Paenisporosarcina sp. TG-14 in complex with a lipid-like molecule” (IUCrJ, 2021).

The target in data set [1] is T1, PaMarR (Paenisporosarcina sp. TG-14, UniProt A0A8J9SKQ8).
T1 construct: gene E2636_00495; N-terminal His6 tag (pET-28a(+), NdeI/XhoI) removed with thrombin; E. coli BL21(DE3); gene primer start TTGGATAAGAGAATAC (N-terminus M/L-DKRI)
In words: X-ray crystal structure. The class given is binding. As to conditions: 1.6 A; co-purified from expression culture, not added; identity assigned from electron density; deep cavity in dimerization domain (helices a1, a6, a7), putative effector site; ammonium citrate pH 7.0.

Data set [2] addresses MarR protein from Paenisporosarcina sp. TG-14 (Paenisporosarcina sp. TG-14). Nature of the data set: AUC; analytical ultracentrifugation at 40 000 rev/min, 20°C, detection at 280 nm, analysed with SEDFIT; one peak at a sedimentation coefficient of about 2.5 (31.3 kDa).
For data set [3], the target named is T2, PaMarR (Paenisporosarcina sp. TG-14, UniProt A0A8J9SKQ8 1-147).
T2 sequence: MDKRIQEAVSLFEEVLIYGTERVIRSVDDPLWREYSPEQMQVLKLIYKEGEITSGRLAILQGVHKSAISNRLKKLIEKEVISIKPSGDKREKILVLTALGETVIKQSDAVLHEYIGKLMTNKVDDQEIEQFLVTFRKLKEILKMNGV
In words: EMSA; 0.3-2.1 uM PaMarR, 0.5 uM duplex; B1 (one site) at low, B2 (both sites) at high protein; protein contains palmitate; EMSA: Dulbecco's PBS, 12% (v/v) glycerol, 0.5 uM duplex, 15 min at 37 C, 20 ul; 8% native PAGE with 5% glycerol in Tris-borate; pH not stated. As to conditions: protein: recombinant; tags: N-terminal His6 (pET-28a NdeI/XhoI), removed with thrombin; chain copies: 2; label: none (GelRed stain); as printed: 52 bp duplex, 3' overhang 13 nt on strand 1 (second strand may be printed incompletely; Methods say complementary oligos). On the technique in general: A gel shift assay detects complexes by their altered migration in electrophoresis.

For `CCCCCCCCCCCCCCCC(=O)O` [palmitic acid], the X-ray crystal structure result on PaMarR [1] was “a model of palmitic acid containing a 16-carbon chain was built, which had the best fit”.
In data set [2], “MarR protein from Paenisporosarcina sp. TG-14 (natural protein)” had a stoichiometry N of 2.

B1: Palindrome probe (putative binding sites 1 and 2) (dsDNA)
DNA 1: TTTTAATAGTTCACCCCCTAAACTAACGTTATTGGTTTAGGGGGTGAACTATTATGCCCCCCATA
DNA 2: ATAGTTCACCCCCTAAACCAATAACGTTAGTTTAGGGGGTGAACTATTAAAA
On to B1, for which, in the data set with PaMarR [3], the binding result is “binds”.
